This assay concerns the target M2 muscarinic receptor fused to CFP (M2R-CFP) (UniProt P08172). Put plainly: FRET or BRET. Background: Bioluminescence resonance energy transfer reports proximity on the nanometre scale.
Sequence of UniProt P08172 (P08172 whole entry, the tested form may be a part): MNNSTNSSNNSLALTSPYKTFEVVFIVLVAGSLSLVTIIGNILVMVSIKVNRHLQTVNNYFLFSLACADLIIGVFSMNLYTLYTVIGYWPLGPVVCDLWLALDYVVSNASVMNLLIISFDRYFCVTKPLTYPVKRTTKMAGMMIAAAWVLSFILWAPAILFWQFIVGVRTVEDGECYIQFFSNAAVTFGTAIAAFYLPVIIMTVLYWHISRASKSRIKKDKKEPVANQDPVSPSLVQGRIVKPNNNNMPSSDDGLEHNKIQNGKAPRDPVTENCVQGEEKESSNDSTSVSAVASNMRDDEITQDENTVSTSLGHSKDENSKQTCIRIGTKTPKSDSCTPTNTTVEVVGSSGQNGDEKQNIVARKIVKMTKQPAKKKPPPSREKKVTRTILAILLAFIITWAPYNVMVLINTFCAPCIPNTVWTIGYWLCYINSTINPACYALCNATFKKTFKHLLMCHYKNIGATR

On to “GBR1R2-YFP chimera (N-terminal and transmembrane domains of GBR1, C-terminal domain of GBR2) (receptor)”, for which the %FRET was 6 %FRET.

Source of the values: article PMC2818375.
